# Target: Tumor necrosis factor alpha (TNF-α) (Homo sapiens, UniProt P01375)
# Test: SPR
# Sequence of Tumor necrosis factor alpha (TNF-α) (P01375 whole entry): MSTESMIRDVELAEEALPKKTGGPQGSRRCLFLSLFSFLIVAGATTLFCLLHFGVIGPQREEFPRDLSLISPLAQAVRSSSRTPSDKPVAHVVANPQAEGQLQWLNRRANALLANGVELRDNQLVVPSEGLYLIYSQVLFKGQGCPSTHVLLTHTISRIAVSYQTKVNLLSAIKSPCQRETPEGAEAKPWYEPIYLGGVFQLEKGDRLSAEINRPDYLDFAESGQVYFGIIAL
binder,measurement,value
VHH2^E50V&T53W (VHH) VHH: QVQLVESGGGLVQPGGSLRLSCAASGFTFSNYWMYWVRQAPGKGLEWVSVINWNGLITKYPDSVKGRFTISRDNAKNTLYLQMNSLKPEDTALYYCARSPSGFNRGQGTQVTVSS,Kd,4.6 nM
